Among the data in the supplement of paper PMC10567573 are protein stability index values, retold here.

B1: GMCL1 (parent)
chain: RPDTGDDAAGHGFCYCAGSHKRKR
B2: CDKN1A (parent)
chain: RRQTSMTDFYHSKRRLIFSKRKP
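Also: lentivirally expressed fusions sorted by FACS into six bins by GFP to DsRed ratio, PSI derived from sequencing read proportions per bin multiplied by bin number.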

One series covers variants of B1. The series can be described thus: protein stability index of a GFP-peptide fusion (GPS, HEK-293T) (PSI 1-6); higher = more stable. The conditions noted are these: c terminus: a fixed tail appended.
In the case of RPDTGDDAAGHGFCYCAGSHKRWR, the protein stability index was found to be 1.95. Same read-out and setting: next, RPDTGDDAAGHGFCYCAGSHKRER: 2.94; RPDTGDDAAGHGFCYCAGSHKRDR: 3.33; RPDTGDDAAGHGFCYCAGSHKRNR: 3.03. Same read-out and setting: the value for RPDTGDDAAGHGFCYCAGSHKRIR was 3.04; that for RPDTGDDAAGHGFCYCAGSHKRGR was 2.9. For the variant RPDTGDDAAGHGFCYCAGSHKRLR, the protein stability index amounted to 2.16. Same read-out and setting: next, RPDTGDDAAGHGFCYCAGSHKRSR: 3.12; RPDTGDDAAGHGFCYCAGSHKRQR: 2.92. Same read-out and setting: next, RPDTGDDAAGHGFCYCAGSHKRTR: 2.18.

As to RPDTGDDAAGHGFCYCAGSHKRAR, the protein stability index came out at 2.2. For the variant RPDTGDDAAGHGFCYCAGSHKRMR, the protein stability index turned out to be 2.32. On the same count and under the same terms, the value for RPDTGDDAAGHGFCYCAGSHKRPR was 2.84; that for RPDTGDDAAGHGFCYCAGSHKRFR was 1.9. Still for that read-out and setting: next, RPDTGDDAAGHGFCYCAGSHKRHR: 3.1; RPDTGDDAAGHGFCYCAGSHKRYR: 2.22; RPDTGDDAAGHGFCYCAGSHKRCR: 3.71.

Consider RPDTGDDAAGHGFCYCAGSHKRVR, for which the protein stability index stood at 2.33. As to RPDTGDDAAGHGFCYCAGSHARKR, the protein stability index was 3.07. The same measure, in the same setting: the value for RPDTGDDAAGHGFCYCAGSHHRKR was 2.35; that for RPDTGDDAAGHGFCYCAGSHGRKR was 2.39; that for RPDTGDDAAGHGFCYCAGSHMRKR was 2.65. In the case of RPDTGDDAAGHGFCYCAGSHTRKR, the protein stability index came to 2.74.

As to RPDTGDDAAGHGFCYCAGSHSRKR, the protein stability index was 2.34. For RPDTGDDAAGHGFCYCAGSHQRKR, the protein stability index came out at 2.79. Still for that read-out and setting: next, RPDTGDDAAGHGFCYCAGSHNRKR: 2.83; RPDTGDDAAGHGFCYCAGSHYRKR: 2.11. Still for that read-out and setting: next, RPDTGDDAAGHGFCYCAGSHLRKR: 2.69; RPDTGDDAAGHGFCYCAGSHRRKR: 2.67; RPDTGDDAAGHGFCYCAGSHPRKR: 3.03. The same measure, in the same setting: next, RPDTGDDAAGHGFCYCAGSHCRKR: 3.23; RPDTGDDAAGHGFCYCAGSHVRKR: 2.79. Regarding RPDTGDDAAGHGFCYCAGSHERKR, the protein stability index worked out at 2.57. On the same count and under the same terms, the value for RPDTGDDAAGHGFCYCAGSHIRKR was 2.01; that for RPDTGDDAAGHGFCYCAGSHDRKR was 3.15; that for RPDTGDDAAGHGFCYCAGSHFRKR was 2.52. On the same count and under the same terms, next, RPDTGDDAAGHGFCYCAGSHWRKR: 2.29.

The variants in the next series derive from B2. The series is described as above. The conditions noted are these: c terminus: native.
Regarding RRSTSMTDFYHSKRRLIFSKRKP, the protein stability index came to 2.27. RRLTSMTDFYHSKRRLIFSKRKP: the protein stability index worked out at 4.67.

Regarding RRGTSMTDFYHSKRRLIFSKRKP, the protein stability index worked out at 3.86. The same measure, in the same setting: the value for RRTTSMTDFYHSKRRLIFSKRKP was 2.71; that for RRFTSMTDFYHSKRRLIFSKRKP was 2.24. Same read-out and setting: the value for RRRTSMTDFYHSKRRLIFSKRKP was 2.49; that for RRKTSMTDFYHSKRRLIFSKRKP was 2.72; that for GRQTSMTDFYHSKRRLIFSKRKP was 1.02. As to NRQTSMTDFYHSKRRLIFSKRKP, the protein stability index was found to be 2.77. Still for that read-out and setting: next, WRQTSMTDFYHSKRRLIFSKRKP: 2.69; LRQTSMTDFYHSKRRLIFSKRKP: 1.96. The same measure, in the same setting: next, YRQTSMTDFYHSKRRLIFSKRKP: 2.74; ERQTSMTDFYHSKRRLIFSKRKP: 3. On the same count and under the same terms, the value for ARQTSMTDFYHSKRRLIFSKRKP was 1.71; that for MRQTSMTDFYHSKRRLIFSKRKP was 2.04. Turning to SRQTSMTDFYHSKRRLIFSKRKP, the protein stability index amounted to 2.99. On the same count and under the same terms, next, KRQTSMTDFYHSKRRLIFSKRKP: 2.57; QRQTSMTDFYHSKRRLIFSKRKP: 1.72; TRQTSMTDFYHSKRRLIFSKRKP: 3.87. FRQTSMTDFYHSKRRLIFSKRKP: the protein stability index came to 3.44. The same measure, in the same setting: the value for VRQTSMTDFYHSKRRLIFSKRKP was 2.34.

Consider IRQTSMTDFYHSKRRLIFSKRKP, for which the protein stability index stood at 1.98. On to RRQSSMTDFYHSKRRLIFSKRKP, for which the protein stability index stood at 2.62. For RRQVSMTDFYHSKRRLIFSKRKP, the protein stability index was 3.23.

RRQWSMTDFYHSKRRLIFSKRKP: the protein stability index turned out to be 4.11. On to RRQPSMTDFYHSKRRLIFSKRKP, for which the protein stability index turned out to be 2.86.

Take RRQASMTDFYHSKRRLIFSKRKP: the protein stability index was 2.23. Same read-out and setting: next, RRQRSMTDFYHSKRRLIFSKRKP: 1.8; RRQESMTDFYHSKRRLIFSKRKP: 3.64. Same read-out and setting: next, RRQYSMTDFYHSKRRLIFSKRKP: 2.22; RRQCSMTDFYHSKRRLIFSKRKP: 2.33; RRQLSMTDFYHSKRRLIFSKRKP: 2.1. On to RRQKSMTDFYHSKRRLIFSKRKP, for which the protein stability index is 2.26. RRQFSMTDFYHSKRRLIFSKRKP: the protein stability index was determined as 2.21. In the case of RWQTSMTDFYHSKRRLIFSKRKP, the protein stability index is 2.28.

In the case of RKQTSMTDFYHSKRRLIFSKRKP, the protein stability index was 1.75.

As to RNQTSMTDFYHSKRRLIFSKRKP, the protein stability index was 3.28.

Consider RGQTSMTDFYHSKRRLIFSKRKP, for which the protein stability index came out at 3.55. On the same count and under the same terms, the value for RDQTSMTDFYHSKRRLIFSKRKP was 2.5; that for RPQTSMTDFYHSKRRLIFSKRKP was 3.33.

RMQTSMTDFYHSKRRLIFSKRKP: the protein stability index was found to be 4.02. On to RVQTSMTDFYHSKRRLIFSKRKP, for which the protein stability index worked out at 2.74.

Take RIQTSMTDFYHSKRRLIFSKRKP: the protein stability index amounted to 2.89. The same measure, in the same setting: next, RSQTSMTDFYHSKRRLIFSKRKP: 1.11; RLQTSMTDFYHSKRRLIFSKRKP: 1.97; RAQTSMTDFYHSKRRLIFSKRKP: 2.1. On the same count and under the same terms, next, RRQTGMTDFYHSKRRLIFSKRKP: 3.9; RRQTNMTDFYHSKRRLIFSKRKP: 1.73. On the same count and under the same terms, next, RRQTDMTDFYHSKRRLIFSKRKP: 2.95; RRQTLMTDFYHSKRRLIFSKRKP: 2.69.

Regarding RRQTMMTDFYHSKRRLIFSKRKP, the protein stability index turned out to be 2.73. Consider RRQTFMTDFYHSKRRLIFSKRKP, for which the protein stability index amounted to 1.93. The same measure, in the same setting: the value for RRQTPMTDFYHSKRRLIFSKRKP was 1.9; that for RRQTKMTDFYHSKRRLIFSKRKP was 2.87. On the same count and under the same terms, next, RRQTHMTDFYHSKRRLIFSKRKP: 3.12; RRQTCMTDFYHSKRRLIFSKRKP: 1.67; RRQTEMTDFYHSKRRLIFSKRKP: 2.5. RRQTAMTDFYHSKRRLIFSKRKP: the protein stability index was found to be 3.
